Measured values reported in patent US7579180B2, “Beta secretase polypeptides” (Amgen Inc., priority 1999, dated 2009).

Molecular target: T1, human beta-secretase-Fc fusion (Homo sapiens, UniProt P56817)
T1 construct: A plasmid containing cDNA encoding amino acids 1-460 of beta-secretase fused to the Fc portion of human IgG; made in house; host or cells: human embryonic kidney 293T cells, stably transfected; purified from conditioned medium on protein A
Test: Beta-secretase activity assay: cleavage of DNP-labeled APP peptides, HPLC
Assay type: biochemical
Conditions: Sw, Wt and MV peptides; FIG. 11
Method: FIG. 11 is a graph depicting the ability of human beta-secretase-Fc fusion to cleave various APP peptides. The X-axis is the amount of enzyme in the reaction mixture and the Y-axis is the amount of cleavage (denoted as pmol product formed) of each of three substrate peptides. “Sw” refers to the APP peptide with the Swedish mutation; “Wt” refers to wild type APP peptide; and “MV” refers to a mutated APP peptide.
Recombinant native as well as mutant beta secretase polypeptides were assayed for activity by measuring the ability of the molecule to cleave various A-beta peptides.
Each assay was conducted as follows. […] Quenched reactions were analyzed by HPLC on a 5 μm, C18 reversed-phase column (Sephasil Peptide, 4.6×100 mm; Amersham Pharmacia Biotech, Piscataway, N.J.) using first a linear gradient of 18-31.5 percent acetonitrile in 0.1 percent TFA over 40 minutes, then 31.5-81 percent acetonitrile for 1 minute, then 81 percent acetonitrile for 4 minutes, and then returning to 18-percent acetonitrile for several minutes to reequilibrate the column. […] Proteolysis of the Sw and WT octapeptides was evaluated using a linear gradient of 27-37.8 percent acetonitrile over 24 minutes on the same column.
Both product and substrate were monitored by absorbance at 360 nm. […]
The concentration of standard was determined from the extinction coefficient of DNP (e365nm=16 mM^−1cm^−1). […]

T1 sequence (P56817 with tags, fused parts or gaps limits assumed): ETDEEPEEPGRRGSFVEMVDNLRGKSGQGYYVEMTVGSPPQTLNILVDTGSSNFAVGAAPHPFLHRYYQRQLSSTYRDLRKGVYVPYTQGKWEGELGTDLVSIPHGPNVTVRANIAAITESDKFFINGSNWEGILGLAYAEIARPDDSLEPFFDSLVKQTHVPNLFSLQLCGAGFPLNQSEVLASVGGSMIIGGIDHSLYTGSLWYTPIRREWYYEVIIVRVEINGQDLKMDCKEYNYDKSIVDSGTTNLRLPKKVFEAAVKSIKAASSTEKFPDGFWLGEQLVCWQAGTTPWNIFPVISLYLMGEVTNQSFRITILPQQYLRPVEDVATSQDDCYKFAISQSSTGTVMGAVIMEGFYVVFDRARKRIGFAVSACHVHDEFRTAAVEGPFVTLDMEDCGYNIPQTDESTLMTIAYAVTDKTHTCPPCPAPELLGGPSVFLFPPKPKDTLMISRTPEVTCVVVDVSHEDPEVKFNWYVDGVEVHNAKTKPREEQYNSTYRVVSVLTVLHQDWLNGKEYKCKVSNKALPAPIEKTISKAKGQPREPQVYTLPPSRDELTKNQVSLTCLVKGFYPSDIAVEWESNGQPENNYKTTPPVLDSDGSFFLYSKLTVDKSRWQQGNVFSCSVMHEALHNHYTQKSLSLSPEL

B1: beta-secretase-Fc: amino acids 1-460 of human beta-secretase fused to the Fc portion of human IgG1, alanine-valine-threonine at the junction (protein)
chain: TQHGIRLPLRSGLGGAPLGLRLPRETDEEPEEPGRRGSFVEMVDNLRGKSGQGYYVEMTVGSPPQTLNILVDTGSSNFAVGAAPHPFLHRYYQRQLSSTYRDLRKGVYVPYTQGKWEGELGTDLVSIPHGPNVTVRANIAAITESDKFFINGSNWEGILGLAYAEIARPDDSLEPFFDSLVKQTHVPNLFSLQLCGAGFPLNQSEVLASVGGSMIIGGIDHSLYTGSLWYTPIRREWYYEVIIVRVEINGQDLKMDCKEYNYDKSIVDSGTTNLRLPKKVFEAAVKSIKAASSTEKFPDGFWLGEQLVCWQAGTTPWNIFPVISLYLMGEVTNQSFRITILPQQYLRPVEDVATSQDDCYKFAISQSSTGTVMGAVIMEGFYVVFDRARKRIGFAVSACHVHDEFRTAAVEGPFVTLDMEDCGYNIPQTDESTLMTIAYAVT
modifications: left off: a dimerising Fc or GST
notes: amino acids 1-460 of human beta-secretase fused to the Fc portion of human IgG1, alanine-valine-threonine at the junction
  substrate specificity of the enzyme: has the same substrate specificity that has previously been described for beta-secretase from intact cells
